Assay [1] deals with T1, RLMoFAYPDDD (SEQ ID NO: 858), state with N-terminal methionine sulfoxide (MoFAYPDDD) (also: C-terminal azidolysine conjugated to DNA-streptavidin linker).
T1 construct: residue range inferred
T1 peptide: [Met(O)]FAYPDDD[Lys(N3)]
Kind of assay: single-molecule on-chip dynamic sequencing.

Assay [2] addresses T2, … (SEQ ID NO: 801), state with N-terminal methionine (MFAYPDDD) (not fully specified (C-terminus); also: C-terminal azidolysine conjugated to DNA-streptavidin linker).
T2 construct: residue range inferred from the recognized N-terminal residue
T2 peptide: MFAYPDDD
Kind of assay: single-molecule on-chip dynamic sequencing.

Assay [3] addresses T3, … (SEQ ID NO: 799), state with N-terminal leucine (LIFAYPDDD) (not fully specified (C-terminus); also: C-terminal azidolysine conjugated to DNA-streptavidin linker).
T3 construct: residue range inferred from the recognized N-terminal residue
T3 peptide: LIFAYPDDD
As to the kind of experiment: single-molecule on-chip dynamic sequencing; recognition of N-terminal leucine. How it is done:
(§1) To illustrate how the kinetic parameters acquired from sequencing are sensitive to changes in sequence composition, sequencing was performed with a set of three peptides […] (SEQ ID NO: 798), […] (SEQ ID NO: 799), and […] (SEQ ID NO: 800)—that differ only at a single position, located immediately downstream from the PS961 N-terminal target leucine.
(§2) The semiconductor chip was placed in the sequencing device and a chip check was performed to test electronic circuit function and to optimize laser coupling alignment. The chip was then removed from the device socket and the chip was washed twice with 50 μL of 70% isopropanol, followed by four washes with 30 μL of wash buffer (50 mM MOPS pH 8.0, 60 mM potassium acetate, 50 mM glucose, 20 mM magnesium acetate, and surfactant mix) through a flow cell attached to the chip. A second chip check was then performed. The laser was then blocked via an integrated software-controlled shutter, peptide complex was added to a final concentration of 1-10 nM and mixed thoroughly, and the chip was incubated for 15 min. The chip was then washed six times with wash buffer, followed by addition of an imaging solution (wash buffer with 5 mM Trolox and an oxygen scavenging system). The laser was unblocked and the occupancy percentage (target 10-30%, Poisson distributed) was recorded by acquiring a photobleaching signal from a fluorophore attached to the peptide complex during 5 min of laser illumination. For NAA recognition-only assays, after peptide loading, labeled recognizer was added to a final concentration of 50 nM PS610, 100 nM PS691, or 250 nM PS961 (as indicated according to the experiment), and data was recorded for 10 hours.

Assay [4] has as its target T4, … (SEQ ID NO: 798), state with N-terminal leucine (LAFAYPDDD) (not fully specified (C-terminus); also: C-terminal azidolysine conjugated to DNA-streptavidin linker).
T4 construct: residue range inferred from the recognized N-terminal residue
T4 peptide: LAFAYPDDD
The assay is described as above. The procedure:
as §1, §2

Assay [5] addresses T5, … (SEQ ID NO: 800), state with N-terminal leucine (LVFAYPDDD) (not fully specified (C-terminus); also: C-terminal azidolysine conjugated to DNA-streptavidin linker).
T5 construct: residue range inferred from the recognized N-terminal residue
T5 peptide: LVFAYPDDD
The description is as above. The procedure:
as §1, §2

Assay [6] has as its target T6, synthetic peptide … (SEQ ID NO: 794), state with N-terminal isoleucine (IFAG) (human, not fully specified (C-terminus); also: C-terminal azidolysine conjugated to DNA-streptavidin linker).
T6 construct: residue range inferred from the recognized N-terminal residue
T6 peptide: IFAG
As to the kind of experiment: single-molecule on-chip dynamic sequencing with PS610, PS961, PS691, PhTET2 and PhTET3. The procedure: (§3) The transition from leucine to isoleucine recognition by PS961 is readily identified as a sharp change in average PD. This overall pattern is replicated across many instances of sequencing of the same peptide, with similar PD statistics across traces, as each peptide molecule follows the same reaction pathway over the course of the sequencing run (FIGS. 3B-3C).
as §2, with “A second chip check was then performed. The laser was then blocked via an integrated software-controlled shutter, peptide complex was added to a final concentration of 1-10 nM and mixed thoroughly, and the chip was incubated for 15 min. The chip was then washed six times with wash buffer, followed by addition of an imaging solution (wash buffer with 5 mM Trolox and an oxygen scavenging system).” left out, “hours. […] Data was recorded for 15 min. […] The laser was then unblocked, and data was recorded for 10 hours.” for “hours.”

Assay [7] addresses T7, synthetic peptide … (SEQ ID NO: 794), state with N-terminal leucine (LIFAG) (human, not fully specified (C-terminus); also: C-terminal azidolysine conjugated to DNA-streptavidin linker).
T7 construct: residue range inferred from the recognized N-terminal residue
T7 peptide: LIFAG
Described as above. How it is done: as §3
as §2, with “A second chip check was then performed. The laser was then blocked via an integrated software-controlled shutter, peptide complex was added to a final concentration of 1-10 nM and mixed thoroughly, and the chip was incubated for 15 min. The chip was then washed six times with wash buffer, followed by addition of an imaging solution (wash buffer with 5 mM Trolox and an oxygen scavenging system).” left out, “hours. […] Data was recorded for 15 min. […] The laser was then unblocked, and data was recorded for 10 hours.” for “hours.”

Square brackets hold non-standard residues; d marks the D form. Ends that are not written are not given here. Lys(N3) = [N-]=[N+]=NCCCC[C@H](N)C(=O)O; Met(O) = CS(=O)CC[C@H](N)C(=O)O

B1: PS961 (designed binder)
chain: MPTAASATESAIEDTPAPARPEVDGRTKPKRQPRYHVVLWDDDDHTYQYVVVMLRSLFGHPPSRGYRMAKEMDTQGRVIVLTTTREHAELKRDQIHAFGRDRLLARSKGSMKASIEAEE
notes: also called PS961 (L, I, V); PS961 (LIV)
On to B1, for which the binding result in assay [1] is recorded as “no binding (tested: 250 nM PS961)”; in assay [2], “binds”; in assay [6], “binds”; in assay [7], “binds”. The results for the “median pulse duration (PD)” value in assay [3], in assay [4] and in assay [5] were 2.22 s, 1.29 s and 4.21 s, respectively.
